Experimental data as given in patent US20260116991A1 (HAINAN SIMCERE ZAIMING PHARMACEUTICAL, published 2026).
Numbering of substitutions follows the chain as printed. “And” between values parts separate entries of the source, which are not always exact repeats. Equal entries are not always repeated.

B1: F4.21.16 (antibody, human IgG1, kappa, V domains shown)
VH: DVQLQESGPGLVKPSQSLSLTCSVTGYSITSGYYWNWIRQFPGNKLEWMGYISYDVTVNYNPSLKNRISITRDTSKNQFFLKLNSVTTEDTATYYCATITSVASMDHWGQGTSVTVSS
VL: DILMTQTPLSLPVSLGDQASISCRSSQNIVHRNGNTYLEWYLQKPGQSPKLLLYKVSNRFSGVPDRFSGSGSGTDFTLKISRVEAEDLGIYYCFQGSHFPFTFGSGTKLEIKR
notes: human-murine chimeric antibody
B2: hAb001H1L1b (antibody, human IgG1, V domains shown)
VH: EVQLVESGGGLVQPGGSLRLSCAASGFSFNTNAMNWVRQAPGKGLEWVGRIRSKSNNYATYYADSVKDRFTISRDDSKNSLYLQMNSLKTEDTAVYYCVRDGYYVLFAYWGQGTLVTVSS
VL: DIVMTQTPLSLPVTPGEPASISCRFSQSIVNSNANTYLEWFLQKPGQSPQLLIYKVSNRFSGVPDRFSGSGSGTDFTLKISRVEAEDVGVYYCFQGSHVPFTFGQGTKLEIK
notes: Humanized F2.169.2, H1+L1b
B3: GC33 IgG (antibody, V domains shown)
VH: QVQLVQSGAEVKKPGASVKVSCKASGYTFTDYEMHWVRQAPGQGLEWMGALDPKTGDTAYSQKFKGRVTLTADKSTSTAYMELSSLTSEDTAVYYCTRFYSYTYWGQGTLVTVSS
VL: DVVMTQSPLSLPVTPGEPASISCRSSQSLVHSNRNTYLHWYLQKPGQSPQLLIYKVSNRFSGVPDRFSGSGSGTDFTLKISRVEAEDVGVYYCSQNTHVPPTFGQGTKLEIKR
notes: Complete IgG form of the control antibody GC33; also called codrituzumab
B4: F2.154.1 human-murine chimeric antibody (antibody, human IgG1, kappa, V domains shown)
VH: QVQLQQSGAELVRPGASVKLSCKASGYRFTDYEMHWVKQTPVHGLEWIGTIDPETGNTAYTQKFMDKATLTADKSSSTAYMELRSLTSEDSAVYYCTRGYSFTYWGQGTLATVSA
VL: B1 VL with I2V, R32S, E39Q, L53I, Y54F, I90V, F99V, S105T
notes: Chimeric
B5: F2.39.2 human-murine chimeric antibody (antibody, human IgG1, kappa, V domains shown)
VH: QVQLQQSGAELVRPGASVKVSCKASGYTFTDYEMHWMKQTPVHGLEWIGANEPETGRSAYDQKFKGKATLTADKSSSTAYMELRSLTSEDSAVYYCTRFYSFAYWGQGTLVTVSA
VL: DVVMTQTPLSLPVSLGDQASISCRSSQGLVHNNGNTYLHWYLQKPGQSPKLLIYKVSNRFSGVPDRFSGSGSGTDFTLKISRVEAEDLGVYFCSQNTHVPPTFGGGTKLEIKR
notes: Chimeric
B6: F3.38.7 human-murine chimeric antibody (antibody, human IgG1, kappa, V domains shown)
VH: QVQLQQSGAELVRPGASVKLSCKASGYTFTDYEIHWVKQTPVLGLEWIGAIDPKTGNTAYNQKFMGKATLTADKSSTTAYMDLRSLTSEDSAVYYCTRYFSFAYWGQGTLVTVSA
VL: B1 VL with I2V, N28T, I29F, R32S, E39Q, L53I, I90V, F99V, F101Y
notes: Chimeric
B7: F3.81.19 human-murine chimeric antibody (antibody, human IgG1, kappa, V domains shown)
VH: B4 VH with R28T, T61N, M65K, D66G, G99P, F102L, A111V
VL: DVLLTQTPLSLPVSLGDQASISCRSSQSFVHSNGDTYLQWYLQKPGQSPKLLIYKVSNRFSGVPDRFSGSGSGTDFTLKISRVEAEDLGVYYCFQGSHVPYTFGSGTKLEIKR
notes: Chimeric
B8: F2.23.8 human-murine chimeric antibody (antibody, human IgG1, kappa, V domains shown)
VH: B4 VH with R28T, I48F, T50A, N57G, T61N, M65R, D66A, G99F, T103A, A111V
VL: B5 VL with G28S, N32S, H39Q, S81T, N96S, P101Y, G105S
notes: Chimeric
B9: F1.2.14 human-murine chimeric antibody (antibody, human IgG1, kappa, V domains shown)
VH: RVQLQQSGAELVKPGASVRMSCKASGYTFTAYSIEWMKQNLGKSLEWIGNFRPYNDDTKYNENFKGRATLTVEKSSATVYLELSRLTSDDSAVYYCARSGPTDYFDYWGQGTTLIVSS
VL: DIQMTQSPASLSASVGETVTITCRASDNIYSYLAWYQQKQGQSPQLLVYNAKTLAEGVPSRFSGSGSVTQFSLKIISLQPEDFGTYYCQHHFGTPRTFGGGTKLEIKR
notes: Chimeric
B10: hAb005LH3L1b (antibody, human IgG1, V domains shown)
VH: EVQLVQSGAEVKKPGASVKVSCKASGYTFTDYEMHWVRQAPGQGLEWIGAIDPETGNTAYIQKFKGRATLTTDKSTSTAYMELRSLRSDDTAVYYCTRFYSYSHWGQGTTVTVSS
VL: DIVMTQTPLSLPVTPGEPASISCRSSQSLVHSNRNTYLHWYLQKPGQSPQLLIYKVSNRFSGVPDRFSGSGSGTDFTLKISRVEAEDVGVYYCSQNTHVPPTFGGGTKVEIK
notes: Humanized F3.54.12
B11: hAb007LH2L1 (antibody, human IgG1, V domains shown)
VH: EVQLVQSGAEVKKPGSSVKVSCKASGYTFTDYEMHWVRQAPGQGLEWMGTIDPETGNTAYNQKFKGRVTITADKSTSTAYMELSSLRSEDTAVYYCTRPYSLTYWGQGTLVTVSS
VL: B2 VL with F25S, I29F, N31H, A34G, N35D, E39Q, F41Y, F101Y
notes: Humanized F3.81.19
B12: hAb006LH1L1 (antibody, human IgG1, V domains shown)
VH: B11 VH with T30S, M34I, T50A, E54K, K65M, P99Y, Y100F, L102F, T103A
VL: B2 VL with F25S, S28T, I29F, N31H, A34G, E39Q, F41Y, F101Y
notes: Humanized F3.38.7
B13: hAb006LH1L1a (antibody, human IgG1, V domains shown)
VH: B11 VH with T30S, M34I, T50A, E54K, K65M, P99Y, Y100F, L102F, T103A
VL: B2 VL with F25S, S28T, I29F, N31H, N33D, A34G, E39Q, F41Y, F101Y
notes: Humanized F3.38.7
B14: hAb006LH1L1b (antibody, human IgG1, V domains shown)
VH: B11 VH with T30S, M34I, T50A, E54K, K65M, P99Y, Y100F, L102F, T103A
VL: B2 VL with F25S, S28T, I29F, N31H, E39Q, F41Y, F101Y
notes: Humanized F3.38.7
B15: hAb006LH2L1 (antibody, human IgG1, V domains shown)
VH: B11 VH with M34I, T50A, E54K, K65M, P99Y, Y100F, L102F, T103A
VL: B2 VL with F25S, S28T, I29F, N31H, A34G, E39Q, F41Y, F101Y
notes: Humanized F3.38.7

Tests used:
[1] = target: T1, polypeptide GC3pep (human); experiment: ELISA, GC3pep coated, antibody 1 nM;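 also: bound antibody detected with an HRP-conjugated secondary antibody and TMB substrate, reaction stopped with HCl, after 2 h binding at 37 °C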
T1 construct: also called membrane proximal polypeptide GC3pep
T1 peptide: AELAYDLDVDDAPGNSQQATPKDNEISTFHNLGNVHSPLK

[2] = target: T1, polypeptide GC3pep; experiment: ELISA, GC3pep coated, antibody 10 nM;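 also: antibody bound to the coated peptide for 2 h at 37 °C, detected through an HRP-conjugated secondary antibody with TMB colour development stopped by acid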
[3] = target: T1, polypeptide GC3pep; experiment: ELISA, GC3pep coated, antibody 0.1 nM;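 also: antibody allowed to bind the coated plate 2 h at 37 °C, then detected via HRP-conjugated secondary antibody and TMB development for 10 min, stopped with HCl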
[4] = target: T1, polypeptide GC3pep; experiment: ELISA, GC3pep coated, antibody 100 nM;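 also: detection with an HRP-conjugated secondary antibody and TMB substrate, color reaction stopped with HCl before absorbance reading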
[5] = target: T1, polypeptide GC3pep; experiment: ELISA, GC3pep coated, antibody 0.01 nM;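 also: bound antibody detected with an HRP-conjugated secondary antibody and TMB substrate, color reaction stopped with HCl before reading absorbance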
[6] = target: T1, polypeptide GC3pep; experiment: ELISA, GC3pep coated, antibody 0.001 nM
[7] = target: T1, polypeptide GC3pep; experiment: ELISA, GC3pep coated, antibody 0.0001 nM
[8] = target: T2, GPC3 on HepG2 cells (human, UniProt P51654 25-554); experiment: FACS on HepG2 cells
T2 construct: whole, on cells; also called glypican-3

[9] = target: T3, murine GPC3-His protein (Sino Biological, Cat. No. 50989-M08B) (murine, UniProt Q8CFZ4 25-558); experiment: ELISA, coated antigen
T3 construct: Bought protein; also called murine GPC3 protein; mouse GPC3-his protein; not shown: His tag

[10] = target: T4, polypeptide GC3pep of human GPC3 (Ala524-Lys563) (human); experiment: ELISA, coated peptide
T4 construct: Residues Ala524-Lys563 of human GPC3 (NCBI NM_004484.3); coated on the ELISA plate; also called membrane proximal polypeptide GC3pep
T4 peptide: T1 peptide

T3 sequence (Q8CFZ4 25-558 limits assumed): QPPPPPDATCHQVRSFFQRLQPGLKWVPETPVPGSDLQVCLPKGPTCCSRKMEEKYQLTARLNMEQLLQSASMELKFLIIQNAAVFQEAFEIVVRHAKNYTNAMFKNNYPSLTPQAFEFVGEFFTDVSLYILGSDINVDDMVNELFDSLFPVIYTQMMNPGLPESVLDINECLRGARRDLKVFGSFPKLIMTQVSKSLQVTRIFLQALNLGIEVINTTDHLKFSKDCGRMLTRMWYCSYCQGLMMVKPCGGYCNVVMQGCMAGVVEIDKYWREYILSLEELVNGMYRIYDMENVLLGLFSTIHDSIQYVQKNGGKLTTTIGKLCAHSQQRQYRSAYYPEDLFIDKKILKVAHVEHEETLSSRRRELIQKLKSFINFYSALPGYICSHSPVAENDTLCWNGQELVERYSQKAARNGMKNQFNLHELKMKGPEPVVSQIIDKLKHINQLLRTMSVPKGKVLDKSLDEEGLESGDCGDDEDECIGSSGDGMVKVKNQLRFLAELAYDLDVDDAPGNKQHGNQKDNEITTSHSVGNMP

Row | Binder | binding result [9] | also measured
1 | B1 |  | OD450 nm [1]: 0.03 OD450 nm; OD450 nm [2]: 0.04 OD450 nm; OD450 nm [3]: 0.03 OD450 nm; OD450 nm [4]: 0.08 OD450 nm; OD450 nm [5]: 0.04 OD450 nm; OD450 nm [6]: 0.04 OD450 nm; OD450 nm [7]: 0.04 OD450 nm
2 | B2 |  | EC50 [8]: 0.918 nM; Max MFI [8]: 4090
3 | B3 |  | EC50 [8]: 1.56 nM and 1.21 nM
4 | B4 | no binding (tested: 100 nM) | 
5 | B5 | no binding (tested: 100 nM) | 
6 | B6 | no binding (tested: 100 nM) | 
7 | B7 | no binding (tested: 100 nM) | 
8 | B8 | no binding (tested: 100 nM) | 
9 | B9 |  | binding result [10]: no binding (tested: 100 nM)
10 | B10 | no binding | 
11 | B11 | no binding | 
12 | B12 | no binding | 
13 | B13 | no binding | 
14 | B14 | no binding | 
15 | B15 | no binding | 
